According to patent publication US10251942B2, “Immunity-inducing agent” (TORAY INDUSTRIES, INC., priority 2009, dated 2019):

What was measured:
Type in all cases: in vivo
[1] = system: mammary gland tumor; experiment: Anti-tumor effect of recombinant PDS5A protein in tumor-bearing dog, mammary gland tumor; settings: 500 μg protein with same amount of Freund's incomplete adjuvant, regional lymph node near tumor, 3 times at 1-week intervals; tumor about 500 mm^3 (dog-derived) or 1000 mm^3 (human-derived) at administration
Protocol: The anti-tumor effect of the recombinant protein described in Example 5 below in 3 individuals of tumor-bearing patient dogs (3 individuals having a mammary gland tumor) having a tumor mass in the epidermis was evaluated. Before administration, the antibody titer against the recombinant protein in the serum of each patient dog was measured by the method described in Example 5 (3), and, as a result, an antibody titer higher than that of a healthy dog was detected.
With 500 μg (2.5 ml) each of the recombinant PDS5A proteins (dog-derived and human-derived) purified as described above, the same amount of Freund's incomplete adjuvant (manufactured by Wako Pure Chemical Industries, Ltd.) was mixed to prepare 2 kinds of therapeutic agents for cancer, each of which was administered to a regional lymph node in the vicinity of the tumor a total of 3 times at 1-week intervals. […] On the other hand, in the negative control group to which PBS(−) was administered, the tumor volume, which had been about 800 mm^3 at the time of administration of PBS, became 1625 mm^3 on Day 21 after the administration.

[2] = system: epidermal squamous cell carcinoma; experiment: Anti-tumor effect of canine recombinant PDS5A protein in patient dog, epidermal squamous cell carcinoma; settings: 500 μg protein with Freund's incomplete adjuvant, subcutaneous near tumor, 4 times at 1-week interval; tumor about 280 mm^3 at administration
Protocol: (§1) With 500 μg (2.5 ml) of the canine recombinant PDS5A protein purified as described in Example 5 below, the same amount of Freund's incomplete adjuvant (manufactured by Wako Pure Chemical Industries, Ltd.) was mixed to prepare a therapeutic agent for cancer, and this therapeutic agent was subcutaneously administered in the vicinity of the tumor in 1 individual each of patient dogs suffering from perianal adenocarcinoma and epidermal squamous cell carcinoma a total of 4 times at 1-week interval.

[3] = system: perianal adenocarcinoma; experiment: Anti-tumor effect of canine recombinant PDS5A protein in patient dog, perianal adenocarcinoma; settings: 500 μg protein with Freund's incomplete adjuvant, subcutaneous near tumor, 4 times at 1-week interval; tumor about 370 mm^3 at administration
Protocol: as §1

B1: canine recombinant PDS5A protein: full-length canine PDS5A (SEQ ID NO:2) expressed in E. coli; given mixed with Freund's incomplete adjuvant (protein, listed as Canis familiaris)
chain: MDFTAQPKPATALCGVVSADGKIAYPPGVKEITDKITTDEMIKRLKMVVKTFMDMDQDSEDEKQQYLPLALHLASEFFLRNPNKDVRLLVACCLADIFRIYAPEAPYTSHDKLKDIFLFITRQLKGLEDTKSPQFNRYFYLLENLAWVKSYNICFELEDCNEIFIQLFRTLFSVINNSHNKKVQMHMLDLMSSIIMEGDGVTQELLDSILINLIPAHKNLNKQSFDLAKVLLKRTVQTIEACIANFFNQVLVLGRSSVSDLSEHVFDLIQELFAIDPHLLLSVMPQLEFKLKSNDGEERLAVVRLLAKLFGSKDSDLATQNRPLWQCFLGRFNDIHVPVRLESVKFASHCLMNHPDLAKDLTEYLKVRSHDPEEAIRHDVIVTIITAAKRDLALVNDQLLGFVRERTLDKRWRVRKEAMMGLAQLYKKYCLHGEAGKEAAEKVSWIKDKLLHIYYQNSIDDKLLVEKIFAQYLVPHNLETEERMKCLYYLYASLDPNAVKALNEMWKCQNMLRSHVRELLDLHKQPTSEANCSAMFGKLMTIAKNLPDPGKAQDFVKKFNQVLGDDEKLRSQLELLISPTCSCKQADVCVREIARKLANPKQPTNPFLEMVKFLLERIAPVHIDSEAISALVKLMNKSIEGTADDEEEGVSPDTAIRSGLELLKVLSFTHPTSFHSAETYESLLQCLRMEDDKVAEAAIQIFRNTGHKIETDLPQIRSTLIPILHQKAKRGTPHQAKQAVHCIHAIFTNKEVQLAQIFEPLSRSLNADVPEQLITPLVSLGHISMLAPDQFASPMKSVVANFIVKDLLMNDRSTGEKNGKLWSPDEEVSPEVLAKVQAIKLLVRWLLGMKNNQSKSANSTLRLLSAMLVSEGDLTEQKRISKSDMSRLRLAAGSAIMKLAQEPCYHEIITPEQFQLCALVINDECYQVRQIFAQKLHKALVKLLLPLEYMAIFALCAKDPVKERRAHARQCLLKNISIRREYIKQNPMATEKLLSLLPEYVVPYMIHLLAHDPDFTRSQDVDQLRDIKECLWFMLEVLMTKNENNSHAFMKKMAENIKLTKDAQSPDESKMNEKLYTVCDVALCVINSKSALCNADSPKDPVLPMKFFTQPEKDFCNDKSYISEETRVLLLTGKPKPAGVLGAVNKPLSATGRKPYVRSTGAETGSNINVNSELNPSTGNRSREQSSEAVETGVSENEENPVRIISVTPVKNIDPVKNKEINSDQTTQGNISSDRGKKRSVAAAGTENIQQKTDEKVDESGPPAPSKPRRGRRPKSESQGNATKNDDINKPLGKGRKRAAVSQESPGGLEAGNAKAPKLQDVAKKAVPAERQIDLQR
modifications: mixed with Freund's incomplete adjuvant
- day on which complete regression of the tumor was achieved [1]: 13 days
- day on which complete regression of the tumor was achieved [2]: 42 days
- day on which complete regression of the tumor was achieved [3]: 35 days
